A short description of this data set: yeast display, Sf9 membrane polyspecificity reagent, FACS + sequencing; frameworks hold sequencing errors. In a few lines:
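Using colony PCR, genes from sorted yeast display clones were amplified, then sequenced on MiSeq at 2 × 250 and filtered by CDR length. The clones had been stained with 10% biotinylated, detergent-solubilized Sf9 membrane reagent for 1 hour at 4 °C and sorted by FACS into low and high (top ~1%) gates on anti-HA and streptavidin fluorescence. Polyreactivity labels come from the gate of origin.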
Consider “QVQLVESGGGLVQAGGSLRLSCAASGSTFFRYAMGWYRQAPGKERELVAAITSGGNTYYADSVKGRFTISRDNAKNTVYLQMNSLIPEDTAVYYCAVVFWQLAHRYDYWGQGTQVTVSS”, for which the “polyreactivity (PSR sort gate)” value is on record as “low polyreactivity”. With “QFQLVESGGGLVQAGGSLSLSCAASGSTLQSYAMGWYRQAPGKERELVAGIRISGGNTRYADSVKGRFTISRDNAKNTVYLQMNSLIPEDTAVYYCAALTGFYNLRPYGYWGQGTQVTVSS”, the “polyreactivity (PSR sort gate)” value is listed as “high polyreactivity”.

Consider “QVQLVESGGGLVQAGGSLRLSCAASGRIFQQYAMGWSRKAPGKERELVAAISRNGGSTYYADSVKGRFTISRDNAKNTVYLQMNRLKTEDTAVYYCNARRNAASTLRKDYGYWGQGTQVSVSS”, for which the “polyreactivity (PSR sort gate)” value is listed as “high polyreactivity”.

As to “QVQLVESGGGLVQAGGSLRLSCAASGSTFYINDMGWYRQAPGKERELVASISWRGGSTYADSVKGRFTISRDNAKNTDYLQMNSLKPEDTAVYYCAAEFDVYSHHWITSYDYWGQGTQVTVSS”, the “polyreactivity (PSR sort gate)” value is “high polyreactivity”. The entry for “QVQLVESGGGLVQAGGSLLLSCDASGNTFIENDMGWYIQAHGKERELVDPIDTGGYTYYADSVKGRFTISRDNAKNTVYLQMNSLKPDDTAVYYCTAVGLYLYRYKFGYLGKIGPGYDYWGQGTQVTVSS” is “low polyreactivity”; for “QVQLVESGGGLVQAGGSLRLSCAASGSTFYPNAMGWYRQAPGKERELVAAISRGTRTKYADSVKGRFTISRDNAMNTVYLQMNSLKPEDTAVYYCAADTGTGLDWGQGTQVTVSS” it is “high polyreactivity”; for “QVQLVESGGGIVQAGGSLRLSCAASGRTFSPYAKGWYRQAPGKERELVAAITLSGSSTYYADSVKGRFTISRDNAKNTVYLQMNRLKPEDTAVYYCAADYLYSWYRYVTYDYWGQGTQVTVSS” it is “high polyreactivity”.

Regarding “QVQLVESGGGLVQAGGSLRLSCAASGRTFVKYAMGWYRQAPGKERELVAAISWSGGSTYYADSVKGRFTISRDNAKNTVYLQMNSLKPEDTAVYYCAAPSSRGQGRNFDYWGQGTQVTVSS”, the “polyreactivity (PSR sort gate)” value is given as “high polyreactivity”.

Turning to “QVQLVESGGGLVQAGASLRLSCAAAGITIGSNVMGWYRQAPRKERELVAAISQCGGRTYYADSVKGRFTISRDYAKNTVYLQMNSMKPEDTAVYYCAKRQRSFYGRPMCDYWGQGTQVTVSS”, the “polyreactivity (PSR sort gate)” value is reported as “high polyreactivity”.

As for “QVQLVESGGGLVQAGGSLRLSCAASGSTFREYAMGWYRQAPGKERELVAAISSGDSTNYADSVKGRFTISRDNAKNTVYLQMNSLKPEDTAVYYCAADAPGAAAVQNDYWGQGTQVTVSS”, the “polyreactivity (PSR sort gate)” value was “low polyreactivity”.

With “QVQLVESGGGLVQAGGSLRLSCAASGYTFVNYAMGWYRQAPGKEREFVAAISRSGGSTYYADSVKGRFTISRDNAKNTVYLQMNSLKPEDSAVYYCALRGYPPYKYYYWGQGTQVTVSS”, the “polyreactivity (PSR sort gate)” value was “high polyreactivity”.

Consider “KVQLVESGGGLVQPGGSLRLSCASSGQTFTTNEMGWNRQAHGKERDLLAAISRRGSRTYYADSVKGRFTISRDNAKNSVFLQMNSLKPEDTAVYYCNALTGSFKTYSFDYWGQGTQVTVSS”, for which the “polyreactivity (PSR sort gate)” value is given as “high polyreactivity”.

Take “QDKLVESGGALVQAGGSLRISCAASGNIFSYYAMGWNRQAPGKEMDLVAAISRRGTNTYYADSVKGRFTISRDKAKNTVYLQMNSLKPEDTAVYYCASYGPYQSSYHYDYWGQGTQVTVSS”: the “polyreactivity (PSR sort gate)” value was “high polyreactivity”. Under “QVQLVESGGGLFQAGGSLRLSCAASGRTITYYAMGWYRQAPGKERELVAAITWSGGSTYYADSVKGRFTISRDNAKNTVYLQMNSMKPEDTAVYYCAKEFYYSSGFDYWGQGTQVTVSS” stands “low polyreactivity”; under “QVQLVESGGGLVQAGGSLRLSCAASGRIFYVNAMGWYRQAPGKERELVATINYTDGSTYYADSVKGRFTISRDKAKNTVYLQMNSMKPEDTAVYYCAADAVWYDFVAYWTTYYYWGPGTQVTVSS”, “low polyreactivity”; under “QVQLVESVGGLVQAGASLRLSCAASGGTFPVYAMGWYRQAPGKEREMVAAISYSGVTTYYADSVKGRFTISRDNAKNTVYLQMNSLKPDDTAVYYCNADWRRWYIFSYDYWGQGTLVTVSS”, “low polyreactivity”. Under “QVQLVESGGGLVQAGGSLRLSCAASGSIFDSYAMGWYRQAPGKERELVADITSDGSTHYADSVKGRFTISRDNAKNSVYLQMNSLKPEDTAVYYCAAALPLVDFYDYWGQGTQVTVSS” stands “low polyreactivity”; under “QVQLVESGGGLVQAGGSLRLSCAASGRTFQSNAMGWYRQAPGNERELVAAISRRGGSTYYADSVKGRFTISRDNEKNTVYLQMNCLKPEDTAVYYCNRDAKAGDWGQGTQVTVSS”, “high polyreactivity”; under “QVQLVESGGGLVQAGGSLRLSCAASGSTFFPNGMGWYRLAPGKERELVAAITQDGGSTYYADSVKGRFTISRDNAKNTVSLQMNSLKPEDTAVYYCAASAGPSYEYGYWGQGTQVTVSS”, “low polyreactivity”. As to “QVQLVESGGGLVQAGGSLRLSCAASGIIFSSYAMGWYRQAPGKERELVAAITSGGSTNYADSVKGRFTISRDNAKNTVYLQMNSLKPEDTAVYYCATVHAKPYYYWGQGTQVTVSS”, the “polyreactivity (PSR sort gate)” value was “low polyreactivity”.

Turning to “QVQFVESGGGLVQAGGSLRLSCAASGSIFIYNAMGWYRQAPGTERELVAAISRGGTNTYYADSVKGRFTISRDNAKNTVYLQMNSLKPEDTAVYYCAARGGYIGSRNNYWGQGTQVTVSS”, the “polyreactivity (PSR sort gate)” value is given as “high polyreactivity”. The entry for “QVQLVESGGGLVQAGGSLRLSCAASGSIFTYNAMGWYRQAPGKERELVATISYSGGSTDYADSVKGRFTISRDNAKNTVYLQMNSLKPEDTAVYYCNKEYGYPPIWQDYGYDSWGQGTQVTVSS” is “high polyreactivity”; for “QVQLVESGGGLVQAGGSLRLSCASSGRIFLYNAMGWYRQAPGKERELVAVISYGGGTYYADSVKGRFTISRDNAKNTVYLQMISLKPEDSAVYYCAAEKYSSSRYWPYNYWGQGTQVTVSS” it is “high polyreactivity”; for “QVQHVESGGGLVQAGGSLRLSCAASGSIFAYNAMGCYRQARGKERELVAAITSSGGSTYYADSVKGRFTISRDNAKNTVYLPMNSLKPEDTAVYYCNAYGYFKKYNYWGQGTQVTVSS” it is “high polyreactivity”. The entry for “QVQLVESGGGLVQAGGSLSLSCAASGRTFNNNAMGCYIPAPGKERELVAAITSGASTNYADSVKGRFTISRDNAKNTVYLQMNSLKPEDTAVYYCAKATYPHEYDYWGQGTQVTVSS” is “low polyreactivity”; for “QVQLVESGGGLVQAGGSLRLRSASSGYILFAYAMVWYRQAPGKERELVATISNYGGITYYAESVKGRFTISRDNAKNTVYLQMNRLKPEDNAVYYCAAAEAGGLVTYDYWGQGTQVTVSS” it is “low polyreactivity”.

Consider “QVQLVESGGGLVQAGGSLRLSCAASGFTFAHNAMGWYRQATGKERELVAVISWSGGRTYYADSVKGRFTISRDNAMNTVYLQMNSLKPEDTAVYYCATRHSKFSYGYWGQGTQVTVSS”, for which the “polyreactivity (PSR sort gate)” value is listed as “high polyreactivity”. Regarding “QVQLVESGGGLVQAGGSLRLSCAASGRIFFIYVMGWYRQAPGKERELVAGITRGGSTNYADSVKGRFTISRDNAKNTVYLQMNSLKPEDTAVYYCAAAVLSYRHAHAGYYYGKGDYWGQGTQVTVSS”, the “polyreactivity (PSR sort gate)” value was “high polyreactivity”.

For the sequence “QVQLVESGGGLVQAGGSLRLSCAASGSILPRYAMGWYRQAPGKERELVAAITSGGITSYADSVKGRFTISRDNAKNTVYLQMNSLKPEDTAVYYCAADWYVIYDYWGQGTQVTVSS”, the “polyreactivity (PSR sort gate)” value is given as “low polyreactivity”.

Consider “QVQLVESGGGLVQAGGSLRLSCPASGINFIFYAMAWYREAPGKERELVATIRRSGSTYYADSVKGRFTISRDNAKNTVYLQMNSLKPEDTAVYYCNARYPYSYGDYWGQGTQVTVSS”, for which the “polyreactivity (PSR sort gate)” value was “high polyreactivity”. Under “QVQLVESGGGLVQEGGSLRLSCAASGFIFRSYAMGWYRKAPGKERELVAAISSSGGSTYYADSVKGRFTISRDNAKNTVYLPMNSLKPEDTAVYYCAKGYQRGRDYWGQGTQVTVSS” stands “high polyreactivity”; under “QVQLVESGGGLVQAGGSLRLSCAASGSTFIDYAMGWYRQAPGKERELVASITWSGGSTYYADSVKGRFTISRDNAKNTVYLQMNSLKPEDTAVYYCNADVNVGLEVRIVYEYDYWGQGTQVTVSS”, “low polyreactivity”; under “QVQLVESGGGLVQAGGSLRLSCAASGRISVFNAMGWYRQAPGKERELVATITDGGSTYYADSVKGRFTISRDNAKNTVYLQMNSLKPEDTAVYYCAKKQVTTDVSSETFVLEMDYWGQGTQVTVSS”, “low polyreactivity”. In the case of “QVQLVESGGGLVQAGGSLRLSCAASGRTFGYYAMGWYRQAPGKERELVASITTGGSTDYADSVKGRFTISRDNAKNTVYLQMNSLKPEDTAVYYCAAKPNPYTKARYYYWGQGTQVTVSS”, the “polyreactivity (PSR sort gate)” value is “high polyreactivity”.

With “QVQLVESGGGLVQAGGSLRLSCAASGRIFVYNAMGWYRQAPGKEREFVAAISWDGASTYYADSVKGRFTISRDNAKNTVYLQMNSLKPEDTAVYYCAASYRRKLNYDYWGQGTQVTVSS”, the “polyreactivity (PSR sort gate)” value is on record as “low polyreactivity”. The entry for “QVQLQESGGGLVQAGGSLRMSCAASGSIFSEANIGWYRQAPGKERELVATIGQGSTTNYADSVKGRFTISRDNAKNNVDLQLTSRKPEETAVYYCAVDTVDPVGFVYWGQGTQVTVRS” is “low polyreactivity”. The entry for “QVQLVESGGGLVQAGGSLRLSCAASGSTFRRYAMGWYRQAPGKERELVAAITSGGRTNYADSVKGRFTISRDNAKNTVYLQMNSLKPEDTAVYYCAARYIRGSYGMGYWGQGTQVTVSS” is “high polyreactivity”; for “QVQLVESGGGLVQAGGSLRLSCAASGRIFHRYVMGWYRQAPGKERELVAAISSGTGSTYYADSVKGRFTISRDTAKNTVYLLMNSLIPEDTAVYYCNAAPGYTSVTYDYWGQGTQVTVSS” it is “high polyreactivity”. On to “QVQLVESGGGLVQAGGSLRLSCAASGSTFAYYAMGWSRQAPGKERELVASISWRGGSTYYADSVKGRFTNSRDNAKNTVYLQMNSLKPEDTAVYYCAAGRFYIWSRSQEYDYWGQGTQVTVSS”, for which the “polyreactivity (PSR sort gate)” value is “low polyreactivity”. The entry for “QVQLVESGGGLVQAGGSLRLSCAASGSIFFGNAMGWYRQAPGKERELVAASTTSGGSTYYADSVKGRFTISRDNAKNTVYLQMNSLKPEDTAVYYCNAEYRTGVDGPRSRGGDYWGQGTQVTVSS” is “low polyreactivity”; for “QVQLVESGRGLVQAGGSLRLSCAASGFTFAGYAMGWYRQATGKERELVAAITWSGGRTYYADSVKGRFTISRDNAKNTVYLQMKSLKPEDTAVYYCAAASGRSRYEYWGQGTQVTVSS” it is “high polyreactivity”.
